For experiment [1], the target named is FLT3 receptor in adult mouse DRG sensory neurons (mouse) (UniProt Q00342). In words: cell-based or functional assay.
In experiment [2] the target is T1, SNAP tagged mouse FLT3, full-length, expressed in HEK293T cells (mouse, UniProt Q00342 28-1000, SNAP tag covalently labelled with SNAP-Lumi4-Tb).
T1 construct: whole, on cells; Transiently transfected HEK293T cells; also called full-length mFLT3; mFLT3; not shown: SNAP tag (plasmid from Cisbio Bioassays)
T1 sequence (looked up): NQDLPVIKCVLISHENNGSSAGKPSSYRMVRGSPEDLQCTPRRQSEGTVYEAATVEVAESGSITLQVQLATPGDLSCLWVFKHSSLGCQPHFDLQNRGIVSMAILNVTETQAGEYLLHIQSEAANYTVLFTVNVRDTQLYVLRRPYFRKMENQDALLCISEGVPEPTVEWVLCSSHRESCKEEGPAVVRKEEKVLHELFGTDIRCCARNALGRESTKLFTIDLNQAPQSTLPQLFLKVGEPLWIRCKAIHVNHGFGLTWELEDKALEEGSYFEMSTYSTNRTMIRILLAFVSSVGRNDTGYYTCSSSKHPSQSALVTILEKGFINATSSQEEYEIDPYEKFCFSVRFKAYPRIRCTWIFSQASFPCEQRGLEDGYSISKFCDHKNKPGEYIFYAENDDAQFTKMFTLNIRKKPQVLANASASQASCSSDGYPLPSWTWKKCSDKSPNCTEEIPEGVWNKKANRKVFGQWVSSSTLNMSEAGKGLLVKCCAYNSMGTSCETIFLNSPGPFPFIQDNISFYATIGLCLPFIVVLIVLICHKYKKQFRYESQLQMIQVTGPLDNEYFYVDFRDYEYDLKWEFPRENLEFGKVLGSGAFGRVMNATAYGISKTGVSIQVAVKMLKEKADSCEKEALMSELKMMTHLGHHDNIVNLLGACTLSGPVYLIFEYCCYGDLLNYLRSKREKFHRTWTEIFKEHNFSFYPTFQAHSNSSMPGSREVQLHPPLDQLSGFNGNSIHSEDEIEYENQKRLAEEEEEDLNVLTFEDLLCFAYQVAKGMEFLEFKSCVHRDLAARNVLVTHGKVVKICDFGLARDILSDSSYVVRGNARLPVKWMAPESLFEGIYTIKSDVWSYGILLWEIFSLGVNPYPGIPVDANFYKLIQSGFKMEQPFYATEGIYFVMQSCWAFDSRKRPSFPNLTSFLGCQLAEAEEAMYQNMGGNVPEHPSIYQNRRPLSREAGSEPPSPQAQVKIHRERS
In words: TR-FRET displacement of 0.5 nM Red-FL on HEK293T cells expressing SNAP tagged full-length mFLT3. The protocol:
(§1) TR-FRET binding assays. TR-FRET binding assays were performed 24 h after transfection on fresh cells. When using frozen cells, binding assays were carried out immediately after cells thawing. When the assay was carried out on adherent cells in 96-well plates, the cell density was 50,000 cells per well, while a density of 10,000 cells per well was used to carry out binding assays in suspension in 384-well small volume plates.
(§2) Cells were incubated with 0.5 nM Red-FL in the presence of increasing concentrations of the antibody. In the plates containing labelled cells, 50 μl of Tag-lite® labelling medium, 25 μl of compounds to be tested were added and incubated for 1 h at room temperature prior to the addition of 25 μl of Red-FL. Plates were then incubated at room temperature for 4 h or overnight before signal detection.
(§3) Signal detection. Signal was detected using an advanced fluorescence microplate reader (RUBYstar, BMG Labtech) equipped with a HTRF optic module allowing a donor excitation at 337 nm and a signal collection both at 665 nm and 620 nm. A frequency of 20 flashes/well is selected for the laser excitation. […] Results were expressed as percentage of signal measured in the presence of Red-FL alone, corrected for non-specific binding measured in the presence of […].
(In TR-FRET formats the signal depends on donor and acceptor labels being close together.)

In experiment [3] the target is T2, SNAP tagged human FLT3, full-length, expressed in HEK293T cells (human, UniProt P36888 27-993, SNAP tag covalently labelled with SNAP-Lumi4-Tb).
T2 construct: whole, on cells; Transiently transfected HEK293T cells; also called full-length hFLT3; hFLT3; not shown: SNAP tag (plasmid from Cisbio Bioassays)
T2 sequence (looked up): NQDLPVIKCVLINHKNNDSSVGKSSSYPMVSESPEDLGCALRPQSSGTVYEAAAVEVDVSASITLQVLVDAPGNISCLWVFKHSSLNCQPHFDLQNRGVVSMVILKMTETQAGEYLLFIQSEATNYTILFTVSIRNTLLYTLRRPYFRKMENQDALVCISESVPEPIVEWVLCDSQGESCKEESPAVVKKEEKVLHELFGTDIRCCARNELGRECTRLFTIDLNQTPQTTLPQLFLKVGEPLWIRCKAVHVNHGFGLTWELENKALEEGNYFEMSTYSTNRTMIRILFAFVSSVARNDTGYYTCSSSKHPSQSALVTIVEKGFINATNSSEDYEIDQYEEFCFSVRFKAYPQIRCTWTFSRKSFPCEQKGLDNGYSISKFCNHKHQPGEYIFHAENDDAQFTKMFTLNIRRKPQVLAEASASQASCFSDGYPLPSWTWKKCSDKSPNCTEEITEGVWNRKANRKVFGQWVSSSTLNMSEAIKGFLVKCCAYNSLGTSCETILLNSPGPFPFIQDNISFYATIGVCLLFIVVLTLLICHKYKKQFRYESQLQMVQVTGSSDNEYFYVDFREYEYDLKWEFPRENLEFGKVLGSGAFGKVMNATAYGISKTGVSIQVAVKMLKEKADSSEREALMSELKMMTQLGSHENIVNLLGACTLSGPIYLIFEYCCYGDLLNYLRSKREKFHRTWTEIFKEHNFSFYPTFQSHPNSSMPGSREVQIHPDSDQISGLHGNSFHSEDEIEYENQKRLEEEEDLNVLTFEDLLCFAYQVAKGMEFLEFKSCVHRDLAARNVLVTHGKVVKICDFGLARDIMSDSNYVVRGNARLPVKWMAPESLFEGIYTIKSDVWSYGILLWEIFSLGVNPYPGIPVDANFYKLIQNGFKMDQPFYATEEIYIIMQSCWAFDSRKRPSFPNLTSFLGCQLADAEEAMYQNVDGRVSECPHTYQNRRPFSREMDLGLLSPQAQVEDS
Nature of the experiment: TR-FRET displacement of 0.5 nM Red-FL on HEK293T cells expressing SNAP tagged full-length hFLT3. The protocol:
as §1, §2, §3

Regarding FL (FLT3-Ligand, from ABCYS SA), in experiment [1], the mean fold increase in TRPV1 response, ΔFarea was 512%; the mean fold increase in TRPV1 response, ΔFpeak came out at 212%; the potentiation of the capsaicin response ([Ca2+]i, Fura-2) in DRG neurons: share of capsaicin-responding cells potentiated was determined as 56%.

B1: A3 antibody (human monoclonal antibody against FLT3) (antibody, V domains shown)
VH: EVQLVESGGSLVKPGGSLRLSCAASGFTFSNSYMNWVRQAPGKGLEWISDISGSSRDIDYADFVKGRFTISRDNATNSLYLQMNSLRAEDTAVYYCVRSGNSGMDVWGRGTLVTVSS
VL: QSVLTQPASVSGSPGQSITISCAGTSSDVGGGYYVSWYQQHPGKAPKLMIYYDSYRPSGVSNRFSGSKSGNTASLTISGLQAEDEADYYCSSYTNNSTRVFGGGTKLEIK
notes: also called antibody A3; anti-FLT3 A3 antibody
With B1, the IC50 in experiment [2] and in experiment [3] was roughly 17 µg/mL each time.

Usually IC50 stands for the concentration needed to halve the response being measured. A lower IC50 goes with higher potency.

The values are drawn from patent publication US20190002888A1 (INSTITUT NATIONAL DE LA SANTE ET DE LA RECHERCHE MEDICALE …, published 2019).
